Holding throughout (test): single-molecule fluorescence in zero-mode waveguides
The target in experiment [1] is Escherichia coli 70S ribosome (Cy3B-30S and BHQ-50S subunits) on biotinylated 6(FK) mRNA (E. coli) (UniProt P0AG67).
The target is the same in experiment [2]. This is another data set of the same source.
For experiment [3] the target is unchanged. The source holds these as a separate data set.

Read-outs that look alike come from different tables or passages of the source.

Broadly, the koff is the rate constant with which the complex falls apart. A low value points to slow dissociation.

In experiment [1], “Cy5-labeled single-cysteine elongation factor G (EF-G S73C on a cysteine-free background) (from UniProt P0A6M8 1-704) (enzyme)” came in with an arrival time against that of EF-G-GDPNP of 150 % longer and a bound-state lifetime of 332 ms. This substance also returned a dwell time in experiment [2] of 192 ms. In experiment [3], this substance gave an arrival time against that of EF-G-GDPNP of 150 % longer, a bound-state lifetime of 191 ms, a dwell time of 1.64 s and a dwell time (events with counter-rotation) of 122 ms. Further, in experiment [3], the dwell time (sampling of the non-rotated state) turned out to be 64.2 ms; the dwell time (sampling of the rotated state, no conformational change) came to 75.8 ms; the dwell time after the counter-rotation worked out at 10 ms; the dwell time with fusidic acid was found to be 8.4 s. In experiment [3], this substance registered a koff of 13.2 s⁻¹, a mean dwell time with spectinomycin (sampling of the rotated state) of 351 ms, a mean dwell time with spectinomycin (successful translocation events) of 326 ms and a mean lifetime of the complex of 1.62 s.

For the origin of these results see article PMC3883222.
